Experimental data reported in doi:10.1101/2024.10.25.620210, “The plastid-encoded RNA polymerase structures a logistic chain for light-induced photosynthesis” (bioRxiv, 2024).

Molecular target: T1, β’’ subunit of the Sinapis alba plastid-encoded RNA polymerase (SaPEP) (Sinapis alba, UniProt Q9THV5 1-1384)
T1 construct: source: native, in the PEP purified from Sinapis alba cotyledon chloroplasts (heparin, MonoQ, Superose 6)
T1 sequence (looked up): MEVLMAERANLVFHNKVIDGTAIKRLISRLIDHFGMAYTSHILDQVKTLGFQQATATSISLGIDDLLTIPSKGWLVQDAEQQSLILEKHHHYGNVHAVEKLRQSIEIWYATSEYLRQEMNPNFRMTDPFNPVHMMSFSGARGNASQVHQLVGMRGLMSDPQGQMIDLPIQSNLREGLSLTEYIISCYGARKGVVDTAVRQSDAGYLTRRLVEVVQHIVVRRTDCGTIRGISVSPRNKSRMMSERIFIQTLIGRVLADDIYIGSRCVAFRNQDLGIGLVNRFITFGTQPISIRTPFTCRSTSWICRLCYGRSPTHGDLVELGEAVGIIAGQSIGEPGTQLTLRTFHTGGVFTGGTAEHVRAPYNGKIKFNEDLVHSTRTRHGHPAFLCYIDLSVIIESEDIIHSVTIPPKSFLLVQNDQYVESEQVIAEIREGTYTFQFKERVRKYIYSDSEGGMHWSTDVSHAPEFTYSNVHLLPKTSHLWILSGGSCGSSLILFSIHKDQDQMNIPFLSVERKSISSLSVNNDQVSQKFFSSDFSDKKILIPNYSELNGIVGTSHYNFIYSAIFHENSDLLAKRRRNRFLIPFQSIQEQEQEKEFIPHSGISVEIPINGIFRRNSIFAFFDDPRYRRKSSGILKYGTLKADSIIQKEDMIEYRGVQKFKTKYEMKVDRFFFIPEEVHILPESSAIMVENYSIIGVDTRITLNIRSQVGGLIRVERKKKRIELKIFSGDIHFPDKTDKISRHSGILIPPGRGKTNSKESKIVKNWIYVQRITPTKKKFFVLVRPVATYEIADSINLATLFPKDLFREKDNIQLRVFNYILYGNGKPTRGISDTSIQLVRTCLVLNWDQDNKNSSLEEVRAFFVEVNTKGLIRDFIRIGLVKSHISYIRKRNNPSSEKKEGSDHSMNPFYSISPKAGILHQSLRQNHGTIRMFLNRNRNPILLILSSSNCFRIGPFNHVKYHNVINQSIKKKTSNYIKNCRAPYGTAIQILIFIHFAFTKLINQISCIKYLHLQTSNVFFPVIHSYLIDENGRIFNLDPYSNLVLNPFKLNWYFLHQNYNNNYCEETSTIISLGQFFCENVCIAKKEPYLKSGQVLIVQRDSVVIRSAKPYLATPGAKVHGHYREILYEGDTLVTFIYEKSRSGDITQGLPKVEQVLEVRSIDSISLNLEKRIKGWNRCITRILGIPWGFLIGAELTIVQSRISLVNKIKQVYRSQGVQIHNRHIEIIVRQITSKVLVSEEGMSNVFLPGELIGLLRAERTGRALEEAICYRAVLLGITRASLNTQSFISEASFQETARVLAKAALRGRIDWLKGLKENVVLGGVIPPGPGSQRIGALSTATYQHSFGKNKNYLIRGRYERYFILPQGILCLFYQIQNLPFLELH
Assay: cryo-EM structure; native 21-subunit SaPEP purified from S. alba cotyledon chloroplasts; graphene oxide grids; consensus map 3.0 Å, multibody and composite maps; open conformation
Details: both partners purified

binding result: binds
B1: β subunit of the Sinapis alba plastid-encoded RNA polymerase (SaPEP) (natural protein, UniProt P46818 1-1078, looked up)
chain: MINAKKMLGDGKEGTSTIPGFNQIQFEGFYRFIDQGLIEELSKFPKIEDIDHEIEFQLFVETYQLVEPLIKERDAVYESLTYSSELYVSAGLIWKTNRNMQEQRIFIGNIPLMNSLGTSIVNGIYRVVINQILQSPGIYYQSELDHNGISVYTGTIISDWGGRLELEIDKKARIWARVSRKQKISILVLSSAMGSNLREILENVCYPEIFLSFLTDKEKKKIGSKENAILEFYQQFSCVGGDPIFSESLCKELQKKFFHQRCELGRIGRRNINWRLNLNIPQNNIFLLPRDILAAADHLIGMKFGMGTLDDMNHLKNKRIRSVADLLQDQLGLALARLENVVKGTIGGAIRHKLIPPTQNLVTSTPLTTTYESFFGFHPLSQVLDRTNPLTQIVHGRKLSYLGPGGLTGRTANFRIRDIHPSHYGRICPIDTSEGINVGLIGSLSIHARIGDWGSLESPFYELVEKSKKAQIRMLFLSPSQDEYYMIAAGNSLALNRGIQEEQVVPARYRQEFLTIAWEEVHLRSIFPFQYFSIGASLIPFIEHNDANRALMSSNMQRQAVPLSRSEKCIVGTGLERQVALDSGVPAIAEHEGKILYTDTEKIILSGNENTLSIPLIMYQRSNKNTCMHQKPQVPRGKCIKKGQILADGAATVGGELALGKNVLVAYMPWEGYNFEDAVLISECLVYGDIYTSFHIRKYEIQTHVTTQGPERITKEIPHLEGRLLRNLDKNGIVMLGSWVETGDILVGKLTPQVAKESSYAPEDRLLRAILGIQVSTSKETCLKLPIGGRGRVIDVRWVQKKGGSSYNPEIIRVYISQKREIKVGDKVAGRHGNKGIISKILPRQDMPYLQDGRPVDMVFNPLGVPSRMNVGQIFECSLGLAGSLLDRHYRIAPFDERYEQEASRKLVFSELYEASKQTANPWVFEPEYPGKSRIFDGRTGDPFEQPVIIGKPYILKLIHQVDDKIHGRSSGHYALVTQQPLRGRSKQGGQRVGEMEVWALEGFGVAHILQEMLTYKSDHIRARQEVLGTTIIGGTIPKPEDAPESFRLLVRELRSLALELNHFLVSEKNFQINRKEV
notes: plastid-encoded β subunit of the S. alba PEP catalytic core; source: native, in the PEP purified from Sinapis alba cotyledon chloroplasts (heparin, MonoQ, Superose 6)
